Data: PMC5300068 (2017)

B1: MASP-2 (protein)
chain: TPLGPKWPEPVFGRLASPGFPGEYANDQERRWTLTAPPGYRLRLYFTHFDLELSHLCEYDFVKLSSGAKVLATLCGQESTDTERAPGKDTFYSLGSSLDITFRSDYSNEKPFTGFEAFYAAEDIDECQVAPGEAPTCDHHCHNHLGGFYCSCRAGYVLHRNKRTCSALCSGQVFTQRSGELSSPEYPRPYPKLSSCTYSISLEEGFSVILDFVESFDVETHPETLCPYDFLKIQTDREEHGPFCGKTLPHRIETKSNTVTITFVTDESGDHTGWKIHYTSTAQPCPYPMAPPNGHVSPVQAKYILKDSFSIFCETGYELLQGHLPLKSFTAVCQKDGSWDRPMPACSIVDCGPPDDLPSGRVEYITGPGVTTYKAVIQYSCEETFYTMKVNDGKYVCEADGFWTSSKGEKSLPVCEPVCGLSARTTGGRIYGGQKAKPGDFPWQVLILGGTTAAGALLYDNWVLTAAHAVYEQKHDASALDIRMGTLKRLSPHYTQAWSEAVFIHEGYTHDAGFDNDIALIKLNNKVVINSNITPICLPRKEAESFMRTDDIGTASGWGLTQRGFLARNLMYVDIPIVDHQKCTAAYEKPPYPRGSVTANMLCAGLESGGKDSCRGDSGGALVFLDSETERWFVGGIVSWGSMNCGEAGQYGVYTKVINYIPWIENIISDF
B2: MASP-1 (protein)
chain: HTVELNNMFGQIQSPGYPDSYPSDSEVTWNITVPDGFRIKLYFMHFNLESSYLCEYDYVKVETEDQVLATFCGRETTDTEQTPGQEVVLSPGSFMSITFRSDFSNEERFTGFDAHYMAVDVDECKEREDEELSCDHYCHNYIGGYYCSCRFGYILHTDNRTCRVECSDNLFTQRTGVITSPDFPNPYPKSSECLYTIELEEGFMVNLQFEDIFDIEDHPEVPCPYDYIKIKVGPKVLGPFCGEKAPEPISTQSHSVLILFHSDNSGENRGWRLSYRAAGNECPELQPPVHGKIEPSQAKYFFKDQVLVSCDTGYKVLKDNVEMDTFQIECLKDGTWSNKIPTCKIVDCRAPGELEHGLITFSTRNNLTTYKSEIKYSCQEPYYKMLNNNTGIYTCSAQGVWMNKVLGRSLPTCLPVCGLPKFSRKLMARIFNGRPAQKGTTPWIAMLSHLNGQPFCGGSLLGSSWIVTAAHCLHQSLDPEDPTLRDSDLLSPSDFKIILGKHWRLRSDENEQHLGVKHTTLHPQYDPNTFENDVALVELLESPVLNAFVMPICLPEGPQQEGAMVIVSGWGKQFLQRFPETLMEIEIPIVDHSTCQKAYAPLKKKVTRDMICAGEKEGGKDACAGDSGGPMVTLNRERGQWYLVGTVSWGDDCGKKDRYGVYSYIHHNKDWIQRVTGVRN

Target: the molecule itself
Assay: AUC

Protein | Kd [nM]
B1 | < 10
B2 | < 10
